According to US7939292B2, “Modified heparinase III and methods of sequencing therewith” (Massachusetts Institute of Technology, priority 2000, dated 2011):
Changes are numbered by the printed parent chain. Names may count otherwise.

B1: wild-type r-heparinase III: recombinantly expressed heparinase III construct without its putative signal sequence, His-tagged, from E. coli (protein, UniProt Q59289 25-659, looked up)
Heparin-sulfate lyase: QSSSITRKDFDHINLEYSGLEKVNKAVAAGNYDDAAKALLAYYREKSKAREPDFSNAEKPADIRQPIDKVTREMADKALVHQFQPHKGYGYFDYGKDINWQMWPVKDNEVRWQLHRVKWWQAMALVYHATGDEKYAREWVYQYSDWARKNPLGLSQDNDKFVWRPLEVSDRVQSLPPTFSLFVNSPAFTPAFLMEFLNSYHQQADYLSTHYAEQGNHRLFEAQRNLFAGVSFPEFKDSPRWRQTGISVLNTEIKKQVYADGMQFELSPIYHVAAIDIFLKAYGSAKRVNLEKEFPQSYVQTVENMIMALISISLPDYNTPMFGDSWITDKNFRMAQFASWARVFPANQAIKYFATDGKQGKAPNFLSKALSNAGFYTFRSGWDKNATVMVLKASPPGEFHAQPDNGTFELFIKGRNFTPDAGVFVYSGDEAIMKLRNWYRQTRIHSTLTLDNQNMVITKARQNKWETGNNLDVLTYTNPSYPNLDHQRSVLFINKKYFLVIDRAIGEATGNLGVHWQLKEDSNPVFDKTKNRVYTTYRDGNNLMIQSLNADRTSLNEEEGKVSYVYNKELKRPAFVFEKPKKNAGTQNFVSIVYPYDGQKAPEISIRENKGNDFEKGKLNLTLTINGKQQLVLVP
modifications: His tag; no signal sequence
B2: heat inactivated heparinase III: heat inactivated heparinase III used as control (protein, UniProt Q59289 25-659, looked up)
Heparin-sulfate lyase: B1 Heparin-sulfate lyase
modifications: heat inactivated
B3: H105A: recombinant heparinase III with histidine 105 mutated to alanine (protein)
chain: MTTKIFKRIIVFAVIALSSGNILAQSSSITRKDFDHINLEYSGLEKVNKAVAAGNYDDAAKALLAYYREKSKAREPDFSNAEKPADIRQPIDKVTREMADKALVAQFQPHKGYGYFDYGKDINWQMWPVKDNEVRWQLHRVKWWQAMALVYHATGDEKYAREWVYQYSDWARKNPLGLSQDNDKFVWRPLEVSDRVQSLPPTFSLFVNSPAFTPAFLMEFLNSYHQQADYLSTHYAEQGNHRLFEAQRNLFAGVSFPEFKDSPRWRQTGISVLNTEIKKQVYADGMQFELSPIYHVAAIDIFLKAYGSAKRVNLEKEFPQSYVQTVENMIMALISISLPDYNTPMFGDSWITDKNFRMAQFASWARVFPANQAIKYFATDGKQGKAPNFLSKALSNAGFYTFRSGWDKNATVMVLKASPPGEFHAQPDNGTFELFIKGRNFTPDAGVFVYSGDEAIMKLRNWYRQTRIHSTLTLDNQNMVITKARQNKWETGNNLDVLTYTNPSYPNLDHQRSVLFINKKYFLVIDRAIGEATGNLGVHWQLKEDSNPVFDKTKNRVYTTYRDGNNLMIQSLNADRTSLNEEEGKVSYVYNKELKRPAFVFEKPKKNAGTQNFVSIVYPYDGQKAPEISIRENKGNDFEKGKLNLTLTINGKQQLVLVP
B4: H110A: recombinant heparinase III with histidine 110 mutated to alanine (protein)
chain: B3 chain with A105H, H110A
B5: H139A: recombinant heparinase III with histidine 139 mutated to alanine (protein)
chain: B3 chain with A105H, H139A

Columns and labels:
[1] = Heparinase III kinetic assay of r-heparinase III and histidine mutants; type: biochemical; settings: heparan sulfate; for Km: calculated assuming a molecular weight of 15 kDa
Procedure: The activity of heparinase III was measured using a UV 232 nm assay similar to those reported for heparinase I and heparinase II (Godavarti, R., Cooney, C. L., Langer, R., and Sasisekharan, R. (1996) Biochemistry 35, 6846-52; Shriver, Z., Hu, Y., and Sasisekharan, R. (1998) J. Biol. Chem. 273, 10160-67; and Lohse, D. and Linhardt, R. J. (1992) J. Biol. Chem. 267, 781-87). Briefly, the increase in absorbance at 232 nm as a function of time was monitored under saturating substrate conditions. All assays were performed with heparan sulfate at a concentration of 2 mg/ml in 50 mM sodium phosphate, pH 7.6. The temperature for enzymatic activity measurements was kept constant at 35° C.
In parallel to the mapping studies and to confirm the results of the chemical modification experiments, each of the thirteen histidine residues present in heparinase III was mutated to alanine. The recombinant heparinase III mutant proteins were expressed, purified, and assessed for enzymatic activity towards heparan sulfate (Table 2).

[2] = SAX-HPLC analysis of exhaustive heparan sulfate digests; type: biochemical; settings: for catalytic activity in overnight heparan sulfate digests: SAX-HPLC, overnight 37° C.
Procedure: Exhaustive digests of 3 mg/ml heparan sulfate in 50 mM sodium phosphate buffer, pH 7.6 were performed overnight at 37° C. for each of the mutants (20 μg protein). The reactions were loaded onto a Spherisorb S5 SAX column (Waters) and eluted using a linear gradient of 0.2-1.0 M NaCl, pH 3.5. The products were monitored at 232 nm and each of the major peaks was collected. To determine their composition, the collected fractions were analyzed by capillary electrophoresis and identified by comigration with known standards.
As a control, the r-heparinase III construct without its putative signal sequence was expressed. The concentration and purity of all recombinant enzyme preparations were determined using SDS-PAGE. The recombinantly expressed heparinase III was also compared to the heparinase III isolated from F. heparinum to ensure that they were the same molecular weight. Heparinase III (20 μg/mL) was incubated with a 4 mg/mL of heparan sulfate overnight at 37° C. The reaction was loaded onto a SAX column and the saccharide products were eluted using a gradient of 0.2-1.0 M NaCl, pH 3.5 over 30 min. and monitored at 232 nm. (A) Heparan sulfate digested with heparinase III from F. heparinum. (B) Heparan sulfate digested with recombinant heparinase III. (C) Heparan sulfate digested with the H295A mutant enzyme. (D) Heparan sulfate digested with the H510A mutant enzyme. (E) Heparan sulfate digested with the H105A mutant enzyme.

B16BL6 melanoma = experiment: Primary tumor growth of B16BL6 melanoma in mice treated with heparinases; type: in vivo
Source text: Heparinases I and III, which have very distinct substrate specificities for cleaving HLGAGs, were employed as tools to investigate the role of HLGAGs in tumor growth and metastasis. While heparinase I cleaves at the highly sulfated regions of HLGAGs, heparinase III only cleaves at the under-sulfated regions of the polysaccharide chain, thereby rendering these enzymes powerful tools to investigate in vivo and in vitro roles of HLGAGs, in development, morphogenesis, angiogenesis etc. To examine the roles of HLGAGs in tumor growth and metastasis, we used B16BL6 melanoma as a model system and treated tumor-bearing mice with either heparinases I or III to investigate both primary tumor growth as well as tumor metastasis. Consistent with the current paradigm, heparinase I accelerated tumor growth (FIG. 8). At a dosage of 0.5 mg/kg/day of heparinase I, tumor growth was increased by about 39%. […] Inhibition of primary tumor growth by heparinase III was first observed at 2 mg/kg per day. Tumor growth was inhibited by 73% at 12 mg/kg per day, the maximum dosage tested in the study (FIG. 8).
Mice, 15 days after tumor implantation with B16BL6 melanoma, were examined. 4×10^5 log growth phase B16BL6 melanoma cells in 0.1 ml PBS were injected to the flank of C57BL/6 mice on day 1. Daily injection of 0.1 ml of PBS, heat inactivated hep III or active heparinase III (2 mg/ml, recombinantly expressed, purified, buffer exchanged with PBS, and concentrated) started at the day 4 and continued throughout the experiment. At day 7, osmotic pumps (100 μl capacity delivering at 0.5 μl per hour) containing PBS or 3 mg/ml hep III were implanted subcutaneously at a place remote from the tumor site. Mice were sacrificed at day 15.
FIG. 8 depicts the tumor volume of the tumors isolated from the mice described above. Tumor volume was measured daily after day 7 with a caliper and calculated with the formula [volume=0.52×(width)^2×(length)].

Row | Molecule | kcat [1] | Km [1] | heparan sulfate degradation product profile compared to wild type heparinase III ([2]; SAX-HPLC and capillary electrophoresis) | tumor mass upon visual inspection compared with active Hep III (B16BL6 melanoma; day 15) | tumor growth curves compared with PBS treated mice (B16BL6 melanoma; mouse, in vivo) | catalytic activity in overnight heparan sulfate digests [2]
1 | B1 | 78 s⁻¹ | 80 µM | identical product profile |  |  | 
2 | B2 |  |  |  | significantly larger tumor masses | comparable growth curves | 
3 | B3 |  |  |  |  |  | retain their catalytic activity
4 | B4 | 37 s⁻¹ | 9 µM |  |  |  | retain their catalytic activity
5 | B5 | 68 s⁻¹ | 191 µM |  |  |  | retain their catalytic activity
